Measurements from article PMC5465079.

Experiments:
Test in all cases: SEC; purified enzymes that were not crosslinked, on Superdex 200; native mass estimated from the elution
[1] = biological target: SCR3 (Candida parapsilosis CCTCC M203011)
[2] = biological target: ADHR (Lactobacillus kefiri DSM 20587)
[3] = biological target: wild-type (S)-carbonyl reductase II (Candida parapsilosis CCTCC M203011)
[4] = biological target: SCR1 (Candida parapsilosis CCTCC M203011)

SCR3 (enzyme)
stoichiometry N [1]: 4

ADHR (enzyme)
stoichiometry N [2]: 4

wild-type (S)-carbonyl reductase II (enzyme)
stoichiometry N [3]: 4

SCR1 (enzyme)
stoichiometry N [4]: 4
